Biological target: the molecule itself
Assay: non-reducing SDS/PAGE and Western blot of oligomers; 15 uM GAPR-1 with 37.5 uM heparin and 100 uM Zn2+ in NT-50 buffer (25 mM Tris, 50 mM NaCl, pH 7.4) at 37 C; aliquots at 0, 2, 7 and 20 h, non-reducing Laemmli buffer, boiled 5 min; blot with rabbit polyclonal anti-GAPR-1

B1: Golgi-Associated plant Pathogenesis Related protein 1 (GAPR-1), wild type (natural protein)
chain: MGKSASKQFHNEVLKAHNEYRQKHGVPPLKLCKNLNREAQQYSEALASTRILKHSPESSRGQCGENLAWASYDQTGKEVADRWYSEIKNYNFQQPGFTSGTGHFTAMVWKNTKKMGVGKASASDGSSFVVARYFPAGNVVNEGFFEENVLPPKK
notes: GAPR-1 (GLIPR-2), UniProt Q9H4G4 as printed; No tag is named; purification was by cation exchange; also called GAPR-1 WT; GLIPR-2; source: E. coli XL-1 Blue, purified (cation exchange, SP Sepharose FF)
binding result: binds
